Where a chain is given by its changes, count along the chain named. In names and notes the source's numbering stands. Entries after “also recorded” stand apart in the source; their conditions may differ.
Tests used:
[1] = target: T1, C4BP (Homo sapiens, UniProt P20851); conditions: PS association with C4BP in plasma; read-out: dissociation constant; cited from earlier work
T1 sequence (P20851 18-252): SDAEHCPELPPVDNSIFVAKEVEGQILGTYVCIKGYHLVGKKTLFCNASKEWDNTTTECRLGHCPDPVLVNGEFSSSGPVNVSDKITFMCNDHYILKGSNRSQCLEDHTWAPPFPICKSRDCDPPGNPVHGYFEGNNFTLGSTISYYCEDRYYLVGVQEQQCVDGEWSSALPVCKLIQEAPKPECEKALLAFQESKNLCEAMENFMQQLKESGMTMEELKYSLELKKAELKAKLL
T1 sequence (P04003 49-597 partner): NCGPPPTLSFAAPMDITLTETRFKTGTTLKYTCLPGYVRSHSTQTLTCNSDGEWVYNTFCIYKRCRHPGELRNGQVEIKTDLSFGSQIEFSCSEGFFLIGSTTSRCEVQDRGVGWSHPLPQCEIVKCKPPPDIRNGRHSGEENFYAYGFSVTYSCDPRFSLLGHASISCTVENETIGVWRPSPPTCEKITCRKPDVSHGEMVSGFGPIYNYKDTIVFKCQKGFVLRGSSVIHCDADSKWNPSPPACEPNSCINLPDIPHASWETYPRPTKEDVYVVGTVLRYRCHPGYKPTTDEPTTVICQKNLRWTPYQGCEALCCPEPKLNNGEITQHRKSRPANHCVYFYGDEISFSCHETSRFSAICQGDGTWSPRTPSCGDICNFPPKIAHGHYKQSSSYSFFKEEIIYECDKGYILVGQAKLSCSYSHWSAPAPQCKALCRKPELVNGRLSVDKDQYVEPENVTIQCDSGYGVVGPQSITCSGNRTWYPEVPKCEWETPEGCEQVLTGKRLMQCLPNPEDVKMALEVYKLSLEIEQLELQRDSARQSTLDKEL

[2] = target: T2, thrombin (Homo sapiens, UniProt P00734); test: Reduced SDS-PAGE of PS variants with thrombin treatment; type: biochemical; conditions: reduced SDS gels
T2 construct: maintained with 1/20 vol (50 ul) of thrombin-Sepharose for 1 hour at 37C
Method: The purity and integrity of the recombinant PS variants was established by SDS-PAGE on 12.5% gradient gels according to Laemmli, Nature, 227:680-685 (1970) using the Phast system (Pharmacia Biotechnology, Sweden). After electrophoresis, the proteins were stained with silver nitrate or transferred onto Immobilon membranes for subsequent detection by Western blot analysis using rabbit anti-PS IgG conjugated to peroxidase (3 ug/ml).
For the thrombin-sensitive PS variant proteins, on reduced SDS gels, purified recombinant PS and the single and double variants all migrated as a doublet. […] The upper band of the doublet for recombinant PS and the single and double variants all could be converted into the lower band by thrombin treatment.

[3] = target: activated protein C (APC) (Homo sapiens, UniProt P04070); test: Activated partial thromboplastin time clotting assay, APC cofactor activity in PS- and C4BP-depleted plasma; type: biochemical
Method: (§1) An activated partial thromboplastin time clotting assay, using PS- and C4BP-depleted plasma, cephalin-kaolin reagent (Boehringer Mannhein, Indianapolis, Ind.), activated protein C (APC) and increasing amounts of recombinant PS variants was performed as described by Chang et al., Thromb. Haemost., 67:526-532 (1992). Briefly, to 50 ul PS and C4BP-depleted plasma (prepared as described by Koedam et al., J. Clin. Invest., 82:1236-1243 (1988)) was added 50 ul cephalin-kaolin reagent, 25 ul APC (Koedam et al., ibid) at 5 ug/ml and 15 to 45 ul recombinant PS variants (0-4 ug/ml) diluted in Michaelis buffer (28.5 mM sodium acetate, 28.5 mM sodium barbital and 116 mM NaCl, pH 7.35) and maintained for 3 minutes at 37C. Clotting was initiated by addition of 50 ul of 25 mM CaCl2 and the clotting time was measured in an Amelung-Coagulometer KC10.
(§2) The ability of the variants to serve as a cofactor for APC was tested in a clotting assay. The clotting assay was performed as described in Example 2D. To examine the effects of thrombin on recombinant PS variants APC cofactor activity, one ml of purified recombinant PS variants listed above and prepared in Example 1D (4-40 ug/ml) was maintained with 1/20 vol (50 ul) of thrombin-Sepharose for 1 hour at 37C. in 50 mM Tris-HCl pH 7.5 containing […]. Thrombin-Sepharose was removed by centrifugation. Supernatants containing the thrombin-treated PS were stored at -20C. until used.
(§3) The PS-dependent prolongation of the clotting time was measured in an activated partial thromboplastin time system using PS and C4BP depleted plasma, APC and cephalin-kaolin reagent as described in Example 2D. Increasing amounts of recombinant PS or the triple variant treated without or with thrombin were added. Clotting was initiated by the addition of CaCl2 and the clotting time was measured. The results are presented as the means of duplicate values.

[4] = target: T3, human C4b-binding protein (C4BP) (Homo sapiens, UniProt P20851); test: ELISA of complex formation between recombinant PS variant proteins and C4BP; conditions: C4BP 1 ug/ml, 18 hours room temperature
T3 sequence (P20851 18-252): T1 sequence (P20851 18-252)
T3 sequence (P04003 49-597 partner): T1 sequence (P04003 49-597 partner)
Method: The complex formation between the recombinant PS variant proteins and C4BP was measured with a sensitive ELISA using C4BP and a peroxidase conjugated anti-PS antibody as described by Chang et al., Thromb. Haemost., 67:526-532 (1992). Briefly, IgG at a concentration of 10 ug/ml from monoclonal antibody 8C11, which is directed against the alpha chain of C4BP (Hessing et al., J. Immunol., 144:204-208 (1990)), was coated in 50 mM NaHCO3 at pH 9.6 overnight at 4C. onto polyvinyl microtiter plates (Costar, Cambridge, Mass.). After washing to remove the unbound IgGs, the wells were blocked with 1% (w/v) BSA in 50 mM Tris-HCl at pH 7.5 containing 150 mM NaCl and 5 mM CaCl2 for 1 hour at room temperature. C4BP, prepared as described by Hessing et al., supra, was allowed to bind for 2 hours with a final concentration of 1 ug/ml. Increasing amounts of recombinant PS proteins (E424K, Q427E, K429E, […] and K432E) and wild-type recombinant PS prepared in Example 1 were then added in concentrations ranging from 0-150 ng/ml and maintained for 18 hours at room temperature. Bound proteins were allowed to bind to rabbit anti-human PS IgG conjugated to peroxidase (Dakopatts, Glostrup, Denmark) at a concentration of 0.3 ug/ml for 2 hours at room temperature. After washing the wells to remove the unbound proteins, 100 ul of 0.1M sodium phosphate/0.2M sodium citrate at pH 5.0 containing 0.04% 1,2-phenylenediamine dihydrochloride and 0.015% hydrogen peroxide was added. The hydrolysis of phenylenediamine was stopped by adding 50 ul 2N sulfuric acid. The absorbance was measured at 490 nm using a Vmax plate reader (Molecular Devices Corp., Menlo Park, Calif.). The data represented the mean of duplicate determinations.
The binding of the of the thrombin domain recombinant PS variants to C4BP was determined. The complex formation between the recombinant proteins and C4BP was measured with a sensitive ELISA using anti-C4BP monoclonal antibody 8C11 lgG, purified C4BP and peroxidase conjugated anti-PS antibody as described in Example 2A.
Anti-C4BP monoclonal antibody 8C11 IgG was coated onto microtiter wells to catch C4BP (1 ug/ml). Increasing amounts (0-100 ng/ml) of recombinant PS or variants (R49L, R60L, R70I, R49L/R60L, R60L/R70I, R49L/R70I and R49L/R60L/R70I) were added. Binding to C4BP was for 18 hours at room temperature. Bound PS variants were detected with anti-PS IgG conjugated to peroxidase (0.3 ug/ml). The results are the mean of duplicate values in two different experiments.

[5] = target: T2, thrombin; test: APC cofactor clotting assay after thrombin-Sepharose treatment of PS variants; type: biochemical
Method: as §1, §2, §3

[6] = tested on: anti-PS monoclonal antibody LJ-56; test: Sandwich assay of LJ-56 reactivity to recombinant PS variant proteins; type: binding; conditions: LJ-56 0-10 ug/ml
Method: Reactivity of LJ-56 to the recombinant PS variant proteins gave essentially the same results when a sandwich detecting assay was performed. In the sandwich assay, a fixed amount of recombinant PS variants produced in Example 1B1) (50 ng for E424K and 100 ng for wild type, Q427E and K429E) were added to wells previously coated with rabbit anti-PS IgG at 10 ug/ml in coating buffer and treated to block nonspecific binding sites as described above. Following a maintenance period for 18 hours at room temperature, the wells were washed with TBS and 100 ul of serial dilutions of anti-PS monoclonal antibody LJ-56 (0-10 ug/ml) was added and maintained for 2 hours at room temperature. Detection of the immunoreactant products was accomplished with rabbit anti-mouse IgG conjugated to peroxidase (1:1000). The hydrolysis of […] was measure at 490 nm using a Vmax plate reader as described in Example 2A.

activated protein C (APC), sequence (P04070 212-461 limits assumed): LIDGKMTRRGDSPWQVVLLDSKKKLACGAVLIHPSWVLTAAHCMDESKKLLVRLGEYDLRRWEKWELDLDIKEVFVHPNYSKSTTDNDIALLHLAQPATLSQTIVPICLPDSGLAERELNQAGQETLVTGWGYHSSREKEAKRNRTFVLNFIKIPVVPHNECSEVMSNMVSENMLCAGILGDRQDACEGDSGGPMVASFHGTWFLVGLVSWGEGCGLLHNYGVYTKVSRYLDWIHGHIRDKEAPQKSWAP
activated protein C (APC), sequence (P04070 43-197 limits assumed): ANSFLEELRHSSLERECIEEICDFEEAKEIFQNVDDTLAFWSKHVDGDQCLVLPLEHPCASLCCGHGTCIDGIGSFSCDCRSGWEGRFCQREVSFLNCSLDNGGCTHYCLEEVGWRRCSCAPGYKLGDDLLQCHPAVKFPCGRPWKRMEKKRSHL

PS: vitamin K-dependent protein of 75,000 molecular weight with 635 amino acid residues
Kd [1]: 1 to 5 nM

B1: R49L/R60L/R70I variant: recombinant protein S triple variant, arginines 49, 60 and 70 replaced by leucine or isoleucine (protein)
chain: ANSLLEETKQGNLERECIEELCNKEEAREVFENDPETDYFYPKYLVCLLSFQTGLFTAALQSTNAYPDLISCVNAIPDQCSPLPCNEDGYMSCKDGKASFTCTCKPGWQGEKCEFDINECKDPSNINGGCSQICDNTPGSYHCSCKNGFVMLSNKKDCKDVDECSLKPSICGTAVCKNIPGDFECECPEGYRYNLKSKSCEDIDECSENMCAQLCVNYPGGYTCYCDGKKGFKLAQDQKSCEVVSVCLPLNLDTKYELLYLAEQFAGVVLYLKFRLPEISRFSAEFDFRTYDSEGVILYAESIDHSAWLLIALRGGKIEVQLKNEHTSKITTGGDVINNGLWNMVSVEELEHSISIKIAKEAVMDINKPGPLFKPENGLLETKVYFAGFPRKVESELIKPINPRLDGCIRSWNLMKQGASGIKEIIQEKQNKHCLVTVEKGSYYPGSGIAQFHIDYNNVSSAEGWHVNVTLNIRPSTGTGVMLALVSGNNTVPFAVSLVDSTSEKSQDILLSVENTVIYRIQALSLCSDQQSHLEFRVNRNNLELSTPLKIETISHEDLQRQLAVLDKAMKAKVATYLGGLPDVPFSATPVNAFYNGCMEVNINGVQLDLDEAISKHNDIRAHSCPSVWKKTKNS
conversion of upper band into lower band by thrombin [2]: not converted into a lower band, indicating that this triple variant was resistant to thrombin | Clotting Time ([3]; concentration 1.19 ug/ml, without protein S 72 ± 2 seconds): 84 s | APC cofactor activity ([3]; not treated with thrombin): higher APC cofactor activity (as defined by prolongation of the clotting time) than recombinant PS; also recorded: retained full APC cofactor activity | binding to C4BP ([4]; thrombin domain variants, 0-100 ng/ml, in the presence of calcium): unaltered affinity for binding to C4BP | Clotting Time After Treatment ([5]; after thrombin treatment, concentration 1.19 ug/ml, without protein S 72 ± 2 seconds): 85 s | APC cofactor activity after treatment with thrombin ([5]; thrombin-Sepharose 1 hour at 37C): retained its APC cofactor activity; also recorded: remained unchanged; also recorded: completely resistant to inactivation by thrombin

B2: K429E variant: recombinant human protein S with glutamic acid in place of lysine at position 429 (protein)
chain: B1 chain with L49R, L60R, I70R, K429E
recognition by LJ-56 [6]: not recognized | Clotting Time ([3]; final conc. 1.8 ug/ml, basal clotting 80): 88 s | anticoagulant activity ([3]; in comparison with the basal clotting time of 80 seconds): anticoagulant activity increased linearly with increasing volumes of variant PS | clotting time at maximal inhibition of clotting ([3]; increasing amounts of variant): approximately 95 seconds | binding to C4BP ([4]; first disulfide loop variants, 0-150 ng/ml, calcium): failed to bind to C4BP at concentrations up to 50 ng/ml

Reference: US5405946A, “Recombinant protein S variants deficient in C4BP binding activity, compositions and therapeutic methods” (The Scripps Research Institute, priority 1992, dated 1995)
